The results in this text go back to article PMC7806223.

Experiment [1] has as its target LH1 αβ heterodimer (Rhodopseudomonas palustris CGA009) (UniProt Q6N9L4). The experiment is described as follows: cryo-EM structure; RC-LH1_(14)-W complex purified from the PufW-His strain; in IMAC buffer (20 mM tris-HCl pH 8.0, 200 mM NaCl, 0.03% β-DDM); 2.65 Å.
For experiment [2] the target is unchanged. Nature of the experiment: cryo-EM structure; RC-LH1_(16) complex purified from the ΔpufW strain (no protein-W); diluted in IMAC buffer (20 mM tris-HCl pH 8.0, 200 mM NaCl, 0.03% β-DDM); 2.80 Å.

Consider “LH1 αβ heterodimer (from UniProt Q6N9L4 1-50; Q6N9L5 2-53) (complex)”, for which the stoichiometry N (αβ heterodimers in the open ring) in experiment [1] was 14. The same substance gave a stoichiometry N (αβ heterodimers in the closed ring) in experiment [2] of 16.
